Data from article PMC3161515 (Molecular cell, 2011).

T1: YFP-ΔGL1,2 Pins-CFP fusion protein (Pins FRET biosensor) (Drosophila, UniProt Q9VB22 1-658, R486F | R570F)
T1 sequence (looked up): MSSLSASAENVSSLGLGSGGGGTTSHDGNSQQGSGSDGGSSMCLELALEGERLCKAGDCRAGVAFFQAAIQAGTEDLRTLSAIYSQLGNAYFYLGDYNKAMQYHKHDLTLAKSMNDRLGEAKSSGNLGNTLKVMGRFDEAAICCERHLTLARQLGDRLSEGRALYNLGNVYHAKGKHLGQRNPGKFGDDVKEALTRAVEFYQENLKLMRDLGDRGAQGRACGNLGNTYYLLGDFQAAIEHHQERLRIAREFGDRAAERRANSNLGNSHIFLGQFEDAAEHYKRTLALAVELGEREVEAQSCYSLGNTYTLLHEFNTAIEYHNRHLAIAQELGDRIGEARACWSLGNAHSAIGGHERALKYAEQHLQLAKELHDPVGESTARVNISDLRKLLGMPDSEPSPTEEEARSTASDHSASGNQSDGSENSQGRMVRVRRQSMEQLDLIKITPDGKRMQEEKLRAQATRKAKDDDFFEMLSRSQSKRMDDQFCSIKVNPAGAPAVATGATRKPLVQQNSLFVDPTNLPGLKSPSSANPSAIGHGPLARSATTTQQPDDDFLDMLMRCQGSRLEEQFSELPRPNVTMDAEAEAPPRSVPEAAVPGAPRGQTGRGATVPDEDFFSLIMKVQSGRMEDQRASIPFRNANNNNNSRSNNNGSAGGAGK

B1: ΔGL1,2 Pins (R486F and R570F) (natural protein)
chain: MSSLSASAENVSSLGLGSGGGGTTSHDGNSQQGSGSDGGSSMCLELALEGERLCKAGDCRAGVAFFQAAIQAGTEDLRTLSAIYSQLGNAYFYLGDYNKAMQYHKHDLTLAKSMNDRLGEAKSSGNLGNTLKVMGRFDEAAICCERHLTLARQLGDRLSEGRALYNLGNVYHAKGKHLGQRNPGKFGDDVKEALTRAVEFYQENLKLMRDLGDRGAQGRACGNLGNTYYLLGDFQAAIEHHQERLRIAREFGDRAAERRANSNLGNSHIFLGQFEDAAEHYKRTLALAVELGEREVEAQSCYSLGNTYTLLHEFNTAIEYHNRHLAIAQELGDRIGEARACWSLGNAHSAIGGHERALKYAEQHLQLAKELHDPVGESTARVNISDLRKLLGMPDSEPSPTEEEARSTASDHSASGNQSDGSENSQGRMVRVRRQSMEQLDLIKITPDGKRMQEEKLRAQATRKAKDDDFFEMLSRSQSKRMDDQFCSIKVNPAGAPAVATGATRKPLVQQNSLFVDPTNLPGLKSPSSANPSAIGHGPLARSATTTQQPDDDFLDMLMRCQGSRLEEQFSELPRPNVTMDAEAEAPPRSVPEAAVPGAPRGQTGRGATVPDEDFFSLIMKVQSGRMEDQRASIPFRNANNNNNSRSNNNGSAGGAGK
B2: heterotrimeric G-protein alpha subunit Gαi, GDP-loaded (natural protein, UniProt P20353 1-355, looked up)
chain: MGCAVSTARDKEAIERSKNIDRALRAEGERAASEVKLLLLGAGESGKSTIVKQMKIIHDTGYSQEECEEYRRVVFSNTVQSLMVIIRAMGRLKIEFADPSRTDIARQFFTHASAADEGILLPEIVLLMKKLWADGGVQQSFARSREYQLNDSAGYYLNSLDRIAQPNYIPTQQDVLRTRVKTTGIIETHFSCKQLHFKLFDVGGQRSERKKWIHCFEGVTAIIFCVALSGYDLVLAEDEEMNRMIESLKLFDSICNSKWFVETSIILFLNKKDLFEEKIKRSPLTICFPEYTGTNTFEEAANYIRMKFENLNKRKDQKEIYTHLTCATDTNNVKFVFDAVTDVIIKNNLKQIGLF

How the values were obtained:
[1] = molecular target: tetramethylrhodamine labeled Mud peptide (TMR-Mud) (Drosophila); assay: fluorescence polarisation
[2] = molecular target: T1, YFP-ΔGL1,2 Pins-CFP fusion protein …; assay: FRET or BRET

Binder | Pins activation (%) [1] [%] | Kd [2] [µM]
B1 | 85 | –
B2 | – | 3.4 ± 0.3
